2 molecules from doi:10.1101/2025.01.22.634233 (bioRxiv, 2025) can be followed below.

Data set [1] deals with the molecule itself. Nature of the data set: cross-linking.
The target of data set [2] is T1, biotinylated Avi-BARD1^554-777, wild type (human, UniProt Q99728 554-777, biotinylated by MBP-BirA).
T1 sequence: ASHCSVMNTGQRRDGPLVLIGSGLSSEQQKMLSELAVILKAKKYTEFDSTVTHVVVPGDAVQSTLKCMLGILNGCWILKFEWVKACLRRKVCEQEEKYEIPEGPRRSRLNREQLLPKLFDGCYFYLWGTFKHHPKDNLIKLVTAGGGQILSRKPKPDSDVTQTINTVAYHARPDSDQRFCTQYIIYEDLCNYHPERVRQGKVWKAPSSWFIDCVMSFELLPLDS
In words: BLI. A general note: In BLI a coated tip is dipped into the sample, and binding shifts an interference pattern.

By Kd is commonly meant the equilibrium constant for the complex coming apart.

B1: BARD1 BRCT (BARD1^554-777), wild type (domain or fragment)
chain: ASHCSVMNTGQRRDGPLVLIGSGLSSEQQKMLSELAVILKAKKYTEFDSTVTHVVVPGDAVQSTLKCMLGILNGCWILKFEWVKACLRRKVCEQEEKYEIPEGPRRSRLNREQLLPKLFDGCYFYLWGTFKHHPKDNLIKLVTAGGGQILSRKPKPDSDVTQTINTVAYHARPDSDQRFCTQYIIYEDLCNYHPERVRQGKVWKAPSSWFIDCVMSFELLPLDS
Regarding B1, the binding result in data set [1] is listed as “binds”.

B2: pS5pS7 GST-(CTD)26 (domain or fragment)
chain: not shown
modifications: phosphoserine at S5 and S7 of the CTD heptads (pS5pS7)
B2 displayed a Kd in data set [2] of 193 nM.
